± gives the uncertainty stated by the source.
Assay: protein stability index of a GFP-peptide fusion (yeast GPS) (PSI 1-4); higher = more stable; sorted into four equal gates, so the index is relative within each strain
Outline: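 The protein stability index combines read frequencies across sorting gates, each weighted by its gate number and then summed. To obtain those frequencies, a pooled yeast library of GFP fusions to tiled 17-residue yeast protein peptides, on a plasmid also expressing Cherry, was grown to mid-log phase in leucine-free medium. The cells were sorted into four equal gates by GFP/Cherry ratio before plasmid amplification by PCR and Illumina sequencing.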

Row | Sequence | protein stability index (doa10∆) | protein stability index (pdr5∆) | protein stability index (san1∆) | protein stability index (ubr1∆)
1 | FTFGQSTSENKISEGSA [YOR098C/NUP1] | 3.71 ± 0.16 | 3.35 ± 0.084 | 2.86 ± 0.12 | 3.37 ± 0.11
2 | KDGETTDANGKTIVTGG [RPO26] | 3.39 ± 0.076 | 3.32 ± 0.047 | 3.37 ± 0.059 | 3.33 ± 0.047
3 | TISQALLNAADRDALSG [PUP3] | 2.82 ± 0.12 | 2.11 ± 0.097 | 1.95 ± 0.17 | 1.95 ± 0.068
4 | RLLPINVNKKALGQDTE [MED11] | 2.84 ± 0.061 | 2.96 ± 0.062 | 2.89 ± 0.035 | 3.16 ± 0.052
5 | TQYATSQKTKTIQSDLN [SMC2] | 2.21 ± 0.088 | 2.34 ± 0.072 | 2.1 ± 0.11 | 2.85 ± 0.05
6 | PINLHPSKLVITKLHLD [RPL26A] | 1.74 ± 0.058 | 2.2 ± 0.045 | 1.9 ± 0.062 | 1.85 ± 0.042
7 | QLDKKNELQKFQALWQL [SMC1] | – | – | 2.58 ± 0.1 | –
8 | IILHFANFGEILEDFRV [YMR153W/NUP53] | 2.7 ± 0.1 | 2.65 ± 0.084 | 2.85 ± 0.062 | 2.85 ± 0.16
9 | VTEDGSIVTVVSSAKFS [RPL22B] | 2.79 ± 0.1 | 3 ± 0.12 | 2.99 ± 0.1 | 2.87 ± 0.087
10 | FLDGIYVSHKGFIVEDM [RPL9B] | 2.24 ± 0.13 | 2.86 ± 0.074 | 2.74 ± 0.087 | 2.66 ± 0.13
11 | ELVKSYSWLLFEASCME [YJR042W/NUP85] | 2.96 ± 0.28 | – | 3.44 ± 0.16 | 2.41 ± 0.19
12 | LRDSLADKIVDEFPELK [NUT2] | 2.76 ± 0.098 | 2.41 ± 0.069 | 1.97 ± 0.23 | 1.44 ± 0.051
13 | CIVDFTNPKLKSEFDDL [YMR129W/POM152] | 1.81 ± 0.067 | 2.1 ± 0.074 | 1.82 ± 0.13 | 1.69 ± 0.052
14 | RGRNDTLERVHLSYCSN [GRR1] | 3.01 ± 0.055 | 3.2 ± 0.068 | 2.69 ± 0.1 | 2.98 ± 0.046
15 | DEFPELKEPVEDIIKRT [NUT2] | 3.5 ± 0.066 | 3.36 ± 0.07 | 3.31 ± 0.045 | 3.36 ± 0.048
16 | SHFSPDIKAAVDDSMEL [ITC1] | 2.27 ± 0.096 | 2.44 ± 0.12 | 1.9 ± 0.15 | 2.48 ± 0.079
17 | VQGELKPTVILKLLKEN [FAS1] | 2.36 ± 0.17 | 2.53 ± 0.14 | 2.75 ± 0.19 | 2.99 ± 0.28
18 | KTLEKLESTIAETQGSK [IRR1] | – | – | 1.39 ± 0.27 | –
19 | QPQALQKSGRPVKSIRA [RPO21] | 2.62 ± 0.065 | 2.29 ± 0.069 | 2.36 ± 0.083 | 2.17 ± 0.037
20 | VTKLNVLVDEIKSQYYS [YIL149C/MLP2] | 2.36 ± 0.066 | 2.33 ± 0.052 | 2.35 ± 0.074 | 2.28 ± 0.037
21 | YFNQLKPYYFSNNHKLS [RPN12] | 1.17 ± 0.057 | 1.32 ± 0.077 | 1.19 ± 0.13 | 1.24 ± 0.04
22 | IQNDEEYDTPALFFDPS [PRP8] | 2.76 ± 0.073 | 3.05 ± 0.056 | 2.73 ± 0.085 | 2.86 ± 0.071
23 | IKTKQMSLKKCQEEVST [SMC2] | 2.48 ± 0.098 | 3.02 ± 0.095 | 3.03 ± 0.088 | 3.27 ± 0.059
24 | VEDYLSSVTSDSMKYTI [RPC82] | 3.45 ± 0.22 | 3.03 ± 0.083 | 3.05 ± 0.14 | 3.04 ± 0.093
25 | LSSNITFDGKPTATPSP [YMR153W/NUP53] | 2.91 ± 0.057 | 3.03 ± 0.058 | 3 ± 0.043 | 2.91 ± 0.046
26 | ALQDKEITSVLSNLHES [SNF12] | 2.93 ± 0.083 | 3.43 ± 0.13 | 2.94 ± 0.064 | 3.13 ± 0.056

Row | Sequence | protein stability index (doa10∆) | protein stability index (pdr5∆) | protein stability index (san1∆) | protein stability index (ubr1∆)
27 | LEIVYGYALRDVQARRQ [RPP1] | 2.43 ± 0.15 | 1.92 ± 0.11 | 2.36 ± 0.13 | 2.3 ± 0.26
28 | MTDRYSFSLTTFSPSGK [PRE8] | – | 3.16 ± 0.25 | – | –
29 | GRIPNVPVIVKARFVSK [RPL28] | 2.32 ± 0.025 | 2.575 ± 0.024 | 2.599 ± 0.025 | 2.648 ± 0.021
30 | AAGTSQARTATLKYICA [RPC10] | 2.16 ± 0.15 | 2.07 ± 0.11 | 1.72 ± 0.11 | 2.24 ± 0.094
31 | HVRKVKLLKQPKFDVGA [RPS1A] | 2.21 ± 0.062 | 2.5 ± 0.085 | 2.28 ± 0.073 | 2.2 ± 0.067
32 | MLLCVSYFLQERYFDCC [PCI8] | 1.19 ± 0.091 | 1.26 ± 0.058 | 1.55 ± 0.1 | 1.3 ± 0.092
33 | ISEFDSFTDILKSAIRD [RPN12] | 2.73 ± 0.12 | 3.15 ± 0.17 | 3.04 ± 0.11 | 2.42 ± 0.13
34 | TRDEKDPKRLFEGNALI [RPS9A] | 3.55 ± 0.2 | 3.6 ± 0.12 | 2.97 ± 0.18 | 3.71 ± 0.15
35 | RSQISEKDAKINKLMEK [SIR4] | 3.13 ± 0.087 | 3.12 ± 0.11 | 3.17 ± 0.062 | 2.27 ± 0.047
36 | GFANSLTFILGQLLSVK [YML031W/NDC1] | 1.13 ± 0.13 | 1.46 ± 0.18 | 1.2 ± 0.22 | 1.26 ± 0.12
37 | KAGRAFHKYRLKRNSWP [RPL2A] | 2.87 ± 0.082 | 2.88 ± 0.063 | 2.13 ± 0.058 | 2.05 ± 0.064
38 | YLNLLQEDELDEGTALS [RPB10] | 3.38 ± 0.11 | 3.3 ± 0.13 | 3.4 ± 0.11 | 3.18 ± 0.16
39 | LKAAFVAIGNTYGFLTP [RPS2] | 2.13 ± 0.072 | 2.27 ± 0.048 | 2.07 ± 0.095 | 2.55 ± 0.042
40 | EQYTKKINSWDQVLVKG [YJL041W/NSP1] | 1.72 ± 0.095 | 2.29 ± 0.1 | – | 1.48 ± 0.087
41 | AKVVVTTSRFSKQVTDY [FAS2] | 3.08 ± 0.084 | 2.71 ± 0.082 | 3.12 ± 0.055 | 3.15 ± 0.058
42 | AAVLSNLQGDLQAIQEK [ITC1] | – | – | 3.31 ± 0.16 | –
43 | EDIMVHYDNTTRNSLGN [RPO21] | 3.1 ± 0.09 | 3.1 ± 0.095 | 3.35 ± 0.041 | 3.06 ± 0.075
44 | FGSRVMIAKEVKTSPDA [FAS1] | 3.37 ± 0.12 | 2.76 ± 0.26 | 2.81 ± 0.27 | 3.49 ± 0.2
45 | TTLGKLSTSVGWKYEDV [RPL16A] | 2.87 ± 0.069 | 3 ± 0.071 | 2.97 ± 0.078 | 2.73 ± 0.073
46 | MSETLPRSDDLEATWNF [CDC53] | 3.05 ± 0.17 | 3.39 ± 0.15 | – | 2.81 ± 0.15
47 | DSLNEWIKFDQELYNEL [RPN7] | 3.18 ± 0.11 | 3.17 ± 0.19 | 3.17 ± 0.074 | 3.19 ± 0.073
48 | KTAEQVAAERAARKAAN [RPL7A] | 2.94 ± 0.091 | 2.92 ± 0.06 | 2.78 ± 0.062 | 2.56 ± 0.052
49 | TSSVILGSQSKSDEGGS [YOR098C/NUP1] | – | 2.23 ± 0.12 | – | 1.81 ± 0.15
50 | PRYFSEAINGFKDETIS [SIR3] | 2.77 ± 0.057 | 2.87 ± 0.054 | 2.46 ± 0.11 | 2.84 ± 0.048
51 | TRSIKEKWLLNQIPVTE [SRB6] | 1.13 ± 0.1 | 1.34 ± 0.18 | 1.29 ± 0.19 | 1.18 ± 0.17
52 | ASGCNVTPIIDGIVVKN [ARP7] | 1.9 ± 0.064 | 2.38 ± 0.063 | 2.25 ± 0.077 | 2.9 ± 0.055

Source: the supplement of paper PMC9732359
